± gives the uncertainty stated by the source.
Test: self-splicing fitness, log relative to wild type (ln ratio); higher = more splicing; Tetrahymena group I intron in knt gene, E. coli kanamycin selection, DiMSum; sequences stand for … in CUCUCU…GGAGGGAAAAGUUAUCAGGCAUGCACCUGGUAGCUAGUCUUUAAACCAAUAGAUUGCAUCGGUUUAAAAGGCAAGACCGUCAAAUUGCGGGAAAGGGGUCAACAGCCGUUCAGUACCAAGUCUCAGGGGAAACUUUGAGAUGGCCUUGCAAAGGGUAUGGUAAUAAGCUGACGGACAUGGUCCUAACCACGCAGCCAAGUCCUAAGUCAACAGAUCUUCUGUUGAUAUGGAUGCAGUUCACAGACUAAAUGUCGGUCGGGGAAGAUGUAUUCUUCUCAUAAGAUAUAGUCGGACCUCUCCUUAAUGGGAGCUAGCGGAUGAAGUGAUGCAACACUGGAGCCGCUGGGAACUAAUUUGUAUGCGAAAGUAUAUUGAUUAGUUUUGGAGUACUCGUGGUCG
In short: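 DiMSum derived fitness as the error-weighted combination of fold changes across replicates, kanamycin versus no kanamycin, normalised to wild type. E. coli BL21(DE3) held the library, which randomised all eight P1ex-region intron nucleotides within the knt kanamycin-resistance gene on pET-22b(+). Six replicate transformations grew overnight at 37°C or 30°C on LB agar with or without 25 μg/mL kanamycin, also containing 100 μg/mL carbenicillin, 50 μM IPTG and 0.2% rhamnose, and pooled colonies were amplicon-sequenced on an Illumina HiSeq 2500.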

Sequence	self-splicing fitness (ln) (30 °C)	self-splicing fitness (ln) (37 °C)
CACCAGCAAUAUUACGACUC	-3.42 ± 0.21	-1.62 ± 0.18
UCAAAGCAAUAUUACGUGAA	-1.42 ± 0.069	-1.06 ± 0.1
UAAUAGCAAUAUUACGCGGA	–	-1.82 ± 0.19
GCUUAGCAAUAUUACGGAAA	-2.37 ± 0.25	-0.752 ± 0.17
ACCGAGCAAUAUUACGUUUG	-2.86 ± 0.13	-2.19 ± 0.14
CCUCAGCAAUAUUACGUUAU	-3.74 ± 0.17	-2.49 ± 0.17
AGUCAGCAAUAUUACGAGUU	-1.9 ± 0.092	-0.799 ± 0.077
GUUGAGCAAUAUUACGGCUC	-2.04 ± 0.31	-1.38 ± 0.31
GACGAGCAAUAUUACGGAAU	-3.93 ± 0.28	-0.331 ± 0.16
UCGCAGCAAUAUUACGGUAG	-2.49 ± 0.086	-0.887 ± 0.086
UUCCAGCAAUAUUACGUGCC	–	-2.5 ± 0.39
CUACAGCAAUAUUACGUUUC	-3.69 ± 0.16	-2.7 ± 0.21
AGCUAGCAAUAUUACGAGCG	-0.417 ± 0.085	-0.0421 ± 0.11
CUGUAGCAAUAUUACGGCAG	-3.85 ± 0.33	-1.32 ± 0.24
CCAUAGCAAUAUUACGUUCG	-0.579 ± 0.08	-0.674 ± 0.1
UCGAAGCAAUAUUACGGCGC	-3.11 ± 0.34	-2.04 ± 0.32
CAGUAGCAAUAUUACGGGCC	-2.57 ± 0.31	-2.19 ± 0.3
UGUCAGCAAUAUUACGGUCA	-0.432 ± 0.071	0.606 ± 0.091
GACUAGCAAUAUUACGAUGG	-3.49 ± 0.13	-2.24 ± 0.12
CUUCAGCAAUAUUACGGGAC	-2.8 ± 0.11	-0.836 ± 0.12
GCGCAGCAAUAUUACGCCUA	-0.46 ± 0.24	0.407 ± 0.16
CAGCAGCAAUAUUACGAGUG	-1.54 ± 0.056	-0.155 ± 0.074
AUUAAGCAAUAUUACGCAGA	-2.88 ± 0.27	-1.36 ± 0.2
UUCUAGCAAUAUUACGGCCA	-2.24 ± 0.4	-1.84 ± 0.42
GCUUAGCAAUAUUACGGGUG	-0.826 ± 0.059	-0.144 ± 0.075
CAUAAGCAAUAUUACGAACU	-2.47 ± 0.23	-2.69 ± 0.29

Sequence	self-splicing fitness (ln) (30 °C)	self-splicing fitness (ln) (37 °C)
CACUAGCAAUAUUACGAAAU	–	-1.38 ± 0.4
GAGCAGCAAUAUUACGUAGA	-2.24 ± 0.1	-1.03 ± 0.13
GGGCAGCAAUAUUACGCAAU	-0.2 ± 0.071	-0.127 ± 0.085
GUGCAGCAAUAUUACGGCGU	-1.58 ± 0.096	-1.93 ± 0.17
UGACAGCAAUAUUACGCGAU	-2.5 ± 0.15	-1.46 ± 0.19
AACGAGCAAUAUUACGUAUA	-2.83 ± 0.19	-2.34 ± 0.27
GUCGAGCAAUAUUACGAGAU	–	-2.45 ± 0.39
AGUCAGCAAUAUUACGCCUG	-2.49 ± 0.16	-0.867 ± 0.11
UUCAAGCAAUAUUACGGGGU	-3.57 ± 0.21	-3.15 ± 0.25
CUCUAGCAAUAUUACGUCUC	-3.06 ± 0.23	-1.81 ± 0.29
AGCAAGCAAUAUUACGCGGA	-2.04 ± 0.13	-0.823 ± 0.099
CCGUAGCAAUAUUACGUUUC	-3.05 ± 0.16	-3.47 ± 0.29
GGAUAGCAAUAUUACGGUUG	-3.53 ± 0.26	-0.953 ± 0.18
UGAUAGCAAUAUUACGGAGU	-3.8 ± 0.37	-2.42 ± 0.41
AGAAAGCAAUAUUACGUACC	-0.284 ± 0.087	0.446 ± 0.12
CGUGAGCAAUAUUACGACAG	-0.792 ± 0.092	-0.318 ± 0.1
GGCUAGCAAUAUUACGAUAU	-1.79 ± 0.17	-1.84 ± 0.16
UUAUAGCAAUAUUACGCGCG	0.0634 ± 0.16	-0.475 ± 0.18
CUUAAGCAAUAUUACGAUAU	-3.29 ± 0.2	-1.4 ± 0.17
GAUCAGCAAUAUUACGUUUU	-0.968 ± 0.058	0.149 ± 0.08
UGACAGCAAUAUUACGCGGA	-1.75 ± 0.12	-1 ± 0.097
AAUAAGCAAUAUUACGUCUG	-1.59 ± 0.11	-0.973 ± 0.11
CCCAAGCAAUAUUACGAAUG	-3.88 ± 0.22	-2.8 ± 0.18
CGCAAGCAAUAUUACGACGG	0.00768 ± 0.061	0.452 ± 0.08
GAGCAGCAAUAUUACGUCGC	-2.31 ± 0.14	-1.47 ± 0.15
ACUCAGCAAUAUUACGCUGG	-2.43 ± 0.12	-2.86 ± 0.22

Sequence	self-splicing fitness (ln) (30 °C)	self-splicing fitness (ln) (37 °C)
AAACAGCAAUAUUACGCAGG	-2.41 ± 0.15	-2.33 ± 0.15
GGGAAGCAAUAUUACGACGA	-0.787 ± 0.093	0.0557 ± 0.11
AGAGAGCAAUAUUACGGAGA	–	-2.11 ± 0.37
GACAAGCAAUAUUACGAGUG	-1.55 ± 0.056	-0.456 ± 0.073
GUUAAGCAAUAUUACGUUUC	-1.75 ± 0.21	-1.29 ± 0.18
CACAAGCAAUAUUACGAUUC	-3.55 ± 0.16	-0.651 ± 0.11
GCGCAGCAAUAUUACGACGA	0.345 ± 0.15	-0.247 ± 0.17
CAAAAGCAAUAUUACGACAU	-2.345 ± 0.013	-1.34 ± 0.033
UGCUAGCAAUAUUACGGCGA	-0.369 ± 0.22	-0.302 ± 0.23
UAUAAGCAAUAUUACGUUAU	-2.58 ± 0.19	-2.3 ± 0.28
CAAAAGCAAUAUUACGAACG	0.409 ± 0.072	0.483 ± 0.095
CGCCAGCAAUAUUACGUCAA	-2.51 ± 0.17	-2.32 ± 0.17
CCCAAGCAAUAUUACGGUGG	-3.69 ± 0.15	-2.71 ± 0.15
GGUGAGCAAUAUUACGGACG	-0.0602 ± 0.16	0.806 ± 0.32
ACACAGCAAUAUUACGACGC	-0.0854 ± 0.07	0.622 ± 0.093
CAUCAGCAAUAUUACGAUGU	-3.52 ± 0.15	-2.58 ± 0.15
AUCAAGCAAUAUUACGCUUA	-1.75 ± 0.1	-0.843 ± 0.1
GACUAGCAAUAUUACGCACG	-0.535 ± 0.068	0.219 ± 0.085
GUACAGCAAUAUUACGUCGA	-2.07 ± 0.11	-1.78 ± 0.12
AACGAGCAAUAUUACGGCAC	-2.99 ± 0.22	-1.89 ± 0.29
ACGAAGCAAUAUUACGUAAC	-4.3 ± 0.42	-2.34 ± 0.49
UCGGAGCAAUAUUACGACGC	-1.25 ± 0.25	-0.73 ± 0.22
GUUAAGCAAUAUUACGUAAA	-1.45 ± 0.12	-1.43 ± 0.12
UCAUAGCAAUAUUACGUAAC	-3.57 ± 0.37	-1.6 ± 0.31

From the supplement of paper PMC7877785
